Reference: patent US7943337B2, “Method for screening a protease” (Asahi Kasei Pharma Corporation, priority 2003, dated 2011)

Columns and labels:
Format in all cases: biochemical
[1] = Screening of protease for hemoglobin A1c determination (pH 7.5); settings: pH 7.5, 37° C. 60 minutes; 550 nm, reference 595 nm; FOD923 developing solution
Experimental: (§1) A screening method is shown in which a protease that cleaves a glycated peptide from N-terminal-glycated pentapeptide of a hemoglobin β-chain without substantially cleaving a glycated amino acid or glycated peptide from N-terminal-glycated pentapeptide of a hemoglobin α-chain. Each 10 μl of a sample for screening was placed in 3 wells of a 96-well plate, respectively. Then, the first well was supplemented with 50 μl of an α-solution, the second well was supplemented with 50 μl of a β-solution, and the third well was supplemented with 50 μl of a control solution. After the plate was incubated at 37° C. for 60 minutes, 50 μl of distilled water and 50 μl of a developing solution were added, and the whole was left at room temperature for 30 minutes. Then, the absorbance at a measuring wavelength of 550 nm and a reference wavelength of 595 nm were determined using a Microplate Reader (model 550, manufactured by Bio-Rad), to select a sample having a difference in the absorbance between the β-solution-supplemented well and the control solution-supplemented well larger than a difference in the absorbance between the α-solution-supplemented well and the control solution-supplemented well. Thus the protease of object was screened. The samples to be used include: carboxypeptidase B (manufactured by Sigma-Aldrich Corp.); carboxypeptidase W (manufactured by Wako Pure Chemical Industries, Ltd.); carboxypeptidase Y (manufactured by Oriental Yeast Co., Ltd.); protease (type XXVII nagase: manufactured by Sigma-Aldrich Corp.); protease (type VIII Subtilisin Carlsberg: manufactured by Sigma-Aldrich Corp.); protease (type XXIV Bacterial: manufactured by Sigma-Aldrich Corp.); Proteinase K (manufactured by Wako Pure Chemical Industries, Ltd.); neutral proteinase (manufactured by Toyobo Co., Ltd.); carboxypeptidase A (manufactured by Wako Pure Chemical Industries, Ltd.); thermolysin (manufactured by Wako Pure Chemical Industries, Ltd.); and distilled water. To confirm a degree of color development caused by a developing solution, 10 μl of 1 mM FVH (manufactured by Peptide Institute Inc.) and 1 mM FVL (manufactured by Peptide Institute Inc.) were placed in a well severally, followed by adding 50 μl of the control solution. The whole was incubated at 37° C. for 60 minutes. Then, 50 μl of distilled water and 50 μl of the developing solution were added and the whole was left at room temperature for 30 minutes, followed by the determination in a similar manner as described above.
(§2) 0.2 mM α-Glycated pentapeptide (manufactured by Peptide Institute Inc.)
(§3) 0.09% 4-Aminoantipyrine (manufactured by Wako Pure Chemical Industries, Ltd.)
(§4) 0.06% TODB (manufactured by Dojindo Laboratories)
(§5) 15 U/ml Peroxidase (manufactured by Sigma-Aldrich Corp.)
(§6) Various bacteria were cultured with shaking in Difco Lactobacilli MRS Broth (manufactured by Becton, Dickinson and Company), a MM medium (2.5% mannose, 2.5% beer yeast extract, pH7.0), and a YPG medium (2% glucose, 1% polypeptone, 2% yeast extract, 0.1% potassium dihydrogen phosphate, 0.05% magnesium sulfate heptahydrate, pH 7.0) at a temperature of from 28 to 30° C. for 1 to 7 days. Then, cells were removed by centrifugation from the culture solutions to obtain culture supernatants. A sample was prepared by diluting the obtained culture supernatants 10-fold with a 10 mM potassium phosphate buffer (pH7.5), and the determination was performed in a similar manner as Example 1.

[2] = as above; settings: pH 7.5, 37° C. 60 minutes; 550 nm, reference 595 nm; FOD923 developing solution; remark: listed apart in the source
Experimental: as §1
(§7) 0.2 mM β-Glycated pentapeptide (manufactured by Peptide Institute Inc.)
as §3, §4, §5, §6

[3] = Screening of protease (pH 7.5), control solution without substrate; settings: pH 7.5, no substrate; 550 nm, reference 595 nm
Experimental: as §1, §3, §4, §5, §6

[4] = Screening of protease for hemoglobin A1c determination (pH 3.5); settings: pH 3.5, 37° C. 60 minutes; 550 nm, reference 595 nm; FOD923 developing solution
Experimental: (§8) A screening method is shown in which a protease that cleaves a glycated peptide from N-terminal-glycated pentapeptide of a hemoglobin β-chain without substantially cleaving a glycated amino acid or glycated peptide from N-terminal-glycated pentapeptide of a hemoglobin α-chain. Each 10 μl of a sample for screening was placed in 3 wells of a 96-well plate, respectively. Then, the first well was supplemented with 50 μl of an α-solution, the second well was supplemented with 50 μl of a β-solution, and the third well was supplemented with 50 μl of a control solution. After the plate was incubated at 37° C. for 60 minutes, 50 μl of pH-regulating solution and 50 μl of a developing solution were added, and the whole was left at room temperature for 30 minutes. Then, the absorbance at a measuring wavelength of 550 nm and a reference wavelength of 595 nm were determined using a Microplate Reader (model 550, manufactured by Bio-Rad), to select a sample having a difference in the absorbance between the β-solution-supplemented well and the control solution-supplemented well larger than a difference in the absorbance between the α-solution-supplemented well and the control solution-supplemented well. Thus the protease of object was screened. The samples to be used include: carboxypeptidase B (manufactured by Sigma-Aldrich Corp.); carboxypeptidase W (manufactured by Wako Pure Chemical Industries, Ltd.); carboxypeptidase Y (manufactured by Oriental Yeast Co., Ltd.); protease (type XXVII nagase: manufactured by Sigma-Aldrich Corp.); protease (type VIII Subtilisin Carlsberg: manufactured by Sigma-Aldrich Corp.); protease (type XXIV Bacterial: manufactured by Sigma-Aldrich Corp.); Proteinase K (manufactured by Wako Pure Chemical Industries, Ltd.); neutral proteinase (manufactured by Toyobo Co., Ltd.); and distilled water. To confirm a degree of color development caused by a developing solution, 10 μl of 1 mM FVH (manufactured by Peptide Institute Inc.) and 1 mM FVL (manufactured by Peptide Institute Inc.) were placed in a well severally, followed by adding 50 μl of the control solution. The whole was incubated at 37° C. for 60 minutes. Then, 50 μl of a pH-regulating solution and 50 μl of the developing solution were added and the whole was left at room temperature for 30 minutes, followed by the determination in a similar manner as described above.
(§9) 50 mM Acetate-sodium acetate (pH3.5)
as §2
(§10) 0.09% 4-aminoantipyrine (manufactured by Wako Pure Chemical Industries, Ltd.)
as §4, §5

[5] = as above; settings: pH 3.5, 37° C. 60 minutes; 550 nm, reference 595 nm; FOD923 developing solution; remark: listed apart in the source
Experimental: as §8, §9, §7, §10, §4, §5

[6] = Screening of protease (pH 3.5), control solution without substrate; settings: pH 3.5, no substrate; 550 nm, reference 595 nm
Experimental: as §8, §9, §10, §4, §5

B1: protease type XXVII: protease (type XXVII nagase: manufactured by Sigma-Aldrich Corp.) (protein, UniProt P00782 108-382, looked up)
Subtilisin BPN': AQSVPYGVSQIKAPALHSQGYTGSNVKVAVIDSGIDSSHPDLKVAGGASMVPSETNPFQDNNSHGTHVAGTVAALNNSIGVLGVAPSASLYAVKVLGADGSGQYSWIINGIEWAIANNMDVINMSLGGPSGSAALKAAVDKAVASGVVVVAAAGNEGTSGSSSTVGYPGKYPSVIAVGAVDSSNQRASFSSVGPELDVMAPGVSIQSTLPGNKYGAYNGTSMASPHVAGAAALILSKHPNWTNTQVRSSLENTTTKLGDSFYYGKGLINVQAAAQ
[1]
  α-Solution (absorbance, RAW DATA): 0.021
[2]
  β-Solution (absorbance, RAW DATA): 0.031
[3]
  control solution (absorbance, RAW DATA): 0.016
[4]
  α-Solution (absorbance, RAW DATA): 0.025
[5]
  β-Solution (absorbance, RAW DATA): 0.021
[6]
  control solution (absorbance, RAW DATA): 0.019
